Experimental data published in patent US20060122108A1.

How the values were obtained:
BSA [1] = target: BSA (UniProt P02769); test: phage ELISA, control well (BSA blocking solution only); phage 796 ng/well; 100% = SEQ 5 phage at 710 ng/well
BSA [2] = target: BSA (UniProt P02769); test: phage ELISA, control well (BSA blocking solution only); phage 122 ng/well; 100% = SEQ 5 phage at 710 ng/well
BSA [3] = target: BSA (UniProt P02769); test: phage ELISA, control well (BSA blocking solution only); phage 3 ng/well; 100% = SEQ 5 phage at 710 ng/well
BSA [4] = target: BSA (UniProt P02769); test: phage ELISA, control well (BSA blocking solution only); phage 20 ng/well; 100% = SEQ 5 phage at 710 ng/well
BSA [5] = target: BSA (UniProt P02769); test: phage ELISA, control well (BSA blocking solution only); phage 0 ng/well (printed); 100% = SEQ 5 phage at 710 ng/well
BSA [6] = target: BSA (UniProt P02769); test: phage ELISA, control well (BSA blocking solution only); phage 1 ng/well; 100% = SEQ 5 phage at 710 ng/well
BSA [7] = target: BSA (UniProt P02769); test: phage ELISA, control well (BSA blocking solution only); phage 859 ng/well; 100% = SEQ 5 phage at 710 ng/well
BSA [8] = target: BSA (UniProt P02769); test: phage ELISA, control well (BSA blocking solution only); phage 132 ng/well; 100% = SEQ 5 phage at 710 ng/well
BSA [9] = target: BSA (UniProt P02769); test: phage ELISA, control well (BSA blocking solution only); phage 4 ng/well; 100% = SEQ 5 phage at 710 ng/well
BSA [10] = target: BSA (UniProt P02769); test: phage ELISA, control well (BSA blocking solution only); phage 22 ng/well; 100% = SEQ 5 phage at 710 ng/well
BSA [11] = target: BSA (UniProt P02769); test: phage ELISA, control well (BSA blocking solution only); phage 18 ng/well; 100% = SEQ 5 phage at 710 ng/well
BSA [12] = target: BSA (UniProt P02769); test: phage ELISA, control well (BSA blocking solution only); phage 109 ng/well; 100% = SEQ 5 phage at 710 ng/well
BSA [13] = target: BSA (UniProt P02769); test: phage ELISA, control well (BSA blocking solution only); phage 710 ng/well; 100% = SEQ 5 phage at 710 ng/well
BSA [14] = target: BSA (UniProt P02769); test: phage ELISA, control well (BSA blocking solution only); phage 134 ng/well; 100% = SEQ 5 phage at 710 ng/well
BSA [15] = target: BSA (UniProt P02769); test: phage ELISA, control well (BSA blocking solution only); phage 870 ng/well; 100% = SEQ 5 phage at 710 ng/well

Sequence of BSA (P02769 25-607 limits assumed): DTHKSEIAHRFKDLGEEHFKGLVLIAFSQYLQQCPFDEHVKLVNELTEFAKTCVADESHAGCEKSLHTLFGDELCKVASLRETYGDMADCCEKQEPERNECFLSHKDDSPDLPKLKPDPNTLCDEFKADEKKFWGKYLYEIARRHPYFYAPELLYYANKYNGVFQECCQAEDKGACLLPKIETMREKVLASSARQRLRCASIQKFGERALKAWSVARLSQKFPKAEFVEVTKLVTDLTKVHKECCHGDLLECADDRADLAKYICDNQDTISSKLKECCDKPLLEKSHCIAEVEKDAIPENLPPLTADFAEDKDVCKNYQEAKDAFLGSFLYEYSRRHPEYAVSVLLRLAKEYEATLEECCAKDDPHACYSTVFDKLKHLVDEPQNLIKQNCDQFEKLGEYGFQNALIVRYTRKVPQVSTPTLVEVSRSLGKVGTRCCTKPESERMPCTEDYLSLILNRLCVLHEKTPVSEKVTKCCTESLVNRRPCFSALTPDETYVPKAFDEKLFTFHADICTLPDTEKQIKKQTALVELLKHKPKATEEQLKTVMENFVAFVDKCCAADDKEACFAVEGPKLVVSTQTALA

B1: phage presenting SEQ ID NO: 2 (…) (peptide, not shown: large carriers)
chain: LWQPPLIPGIDF
percentage of binding (BSA [1]): 12%
percentage of binding (BSA [2]): 9%
percentage of binding (BSA [3]): 2%
percentage of binding (BSA [4]): 4%
percentage of binding (BSA [5]): 0%
percentage of binding (BSA [6]): 1%

B2: phage presenting SEQ ID NO: 3 (…) (peptide, not shown: large carriers)
chain: QIEPWFTPEDFP
percentage of binding (BSA [7]): 10%
percentage of binding (BSA [8]): 5%
percentage of binding (BSA [9]): 1%
percentage of binding (BSA [10]): 2%
percentage of binding (BSA [5]): 0%
percentage of binding (BSA [6]): 0%

B3: phage presenting SEQ ID NO: 5 (…) (peptide, not shown: large carriers)
chain: SWLQMPWALVRT
percentage of binding (BSA [3]): 1%
percentage of binding (BSA [11]): 1%
percentage of binding (BSA [5]): 0%
percentage of binding (BSA [12]): 3%
percentage of binding (BSA [6]): 0%
percentage of binding (BSA [13]): 5%

B4: phage presenting SEQ ID NO: 4 (…) (peptide, not shown: large carriers)
chain: TRLAPLVFPLDY
percentage of binding (BSA [9]): 0%
percentage of binding (BSA [10]): 1%
percentage of binding (BSA [14]): 4%
percentage of binding (BSA [5]): 0%
percentage of binding (BSA [6]): 0%
percentage of binding (BSA [15]): 10%
